{"source": "paper doi:10.1101/2021.02.13.431076", "target": "GOLD domain of human TMED1 (p24γ1), signal peptide-free (human) (UniProt Q13445)", "test": "SEC", "data": [{"substance": "GOLD domain of human TMED1 (p24γ1), signal peptide-free (from UniProt Q13445 24-130) (domain or fragment)", "values": [{"measurement": "stoichiometry N", "value": 2}]}]}
